Biological target: T1, PROX1 protein of mouse retinal tissue (mouse, UniProt P48437 1-737)
T1 construct: Endogenous protein
T1 sequence (looked up): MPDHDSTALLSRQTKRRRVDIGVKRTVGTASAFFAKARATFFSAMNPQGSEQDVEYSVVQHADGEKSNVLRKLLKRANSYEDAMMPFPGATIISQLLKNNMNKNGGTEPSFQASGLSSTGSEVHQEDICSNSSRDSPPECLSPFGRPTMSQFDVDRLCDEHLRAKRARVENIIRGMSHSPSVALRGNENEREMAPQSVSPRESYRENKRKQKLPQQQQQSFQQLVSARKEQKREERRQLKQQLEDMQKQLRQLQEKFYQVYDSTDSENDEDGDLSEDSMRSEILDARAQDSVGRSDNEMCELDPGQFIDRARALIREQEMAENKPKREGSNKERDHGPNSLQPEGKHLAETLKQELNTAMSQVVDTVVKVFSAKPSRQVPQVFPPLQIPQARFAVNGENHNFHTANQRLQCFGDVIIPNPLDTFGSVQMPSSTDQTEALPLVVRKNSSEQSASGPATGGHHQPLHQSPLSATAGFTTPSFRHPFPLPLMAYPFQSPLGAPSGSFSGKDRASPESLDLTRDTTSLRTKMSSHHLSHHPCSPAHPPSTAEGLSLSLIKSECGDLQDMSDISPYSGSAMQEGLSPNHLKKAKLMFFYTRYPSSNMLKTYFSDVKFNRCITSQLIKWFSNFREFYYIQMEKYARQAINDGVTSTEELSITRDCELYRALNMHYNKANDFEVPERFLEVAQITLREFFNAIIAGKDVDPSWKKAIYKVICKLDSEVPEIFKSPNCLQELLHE
Assay: immunoprecipitation with Ni-NTA beads from mouse retinal tissue lysate, Western blot
Protocol: Protein samples were prepared from mice cortex tissue not expressing PROX1 protein and mouse retinal tissue expressing PROX1 protein and PROX1 neutralizing single chain antibody (anti-PROX1-scFv-His) at 4° C. for 16 hours, followed by Ni-NTA beads for 4 hours. Thereafter, the Ni-NTA bead immune complex was washed five times with a washing buffer (50 mM imidazole and protease inhibitor) and a Western blot experiment was performed to confirm the binding ability of the single chain antibody to the PROX1 protein.
Thereafter, the Ni-NTA bead immune complex was washed 5 times with a washing buffer (50 mM imidazole and protease inhibitor) and a Western blot experiment was performed to confirm the binding ability of the PROX1 neutralizing single chain antibody to the PROX1 protein (see FIG. 1).

B1: anti-PROX1-single chain Fv-His (clone #1A11) (scFv, V domains shown)
VH: AVTLDESGGGLQTPGGGLSLVCKASGFTFSSYAMNWVRQAPGKGLEWVAAIDDDGSYTGYGSAVKGRATISRDNGQSTVRLQLNNLRAEDTAIYYCAKAAGSGYCYRGANSSYTCGTYNAGDIDAWGHGTEVIVSS
VL: LTQPSSVSANLGETVEITCSGGSGSYGWYQQKSPGSAPVTLIYDNANRPSNIPSRFSGSKSGSTGTLTITGVRAEDEAVYYCGNVDSSTYVGMFGAGTTLTVL
notes: One polypeptide (scFv from a chicken antibody phage display library) with a hexa-histidine tag; used as phage periplasmic supernatant; also called anti-PROX1-scFv-His; scFv-His
B1: binds.

— US20230331829A1 (KOREA ADVANCED INSTITUTE OF SCIENCE AND TECHNOLOGY, published 2023)
